Results published in patent US12115264B2, “Sterilization and filtration of peptide compositions” (3-D Matrix, Ltd., priority 2014, dated 2024).
Where no end group is shown, it is not given here.

What was measured:
Assay type in all cases: physicochemical
[1] = Shear flow test (rheometer DHR-1, 20 mm plates); details: for yield stress (shear flow test): shear rate 0.003 to 1000
Description: Shear flow tests were performed on peptide solutions using a rheometer (DHR-1, TA Instruments) with 20 mm plates. Results are shown in FIG. 9 for 2.5% RADA16 (SEQ ID NO:1) solutions and FIG. 10 for 1.5% IEIK13 (SEQ ID NO:3) solutions. […] That is, as shear rate increased, their viscosities were dramatically dropped. […] The yield stress was about 40 Pa for 2.5% RADA16 (SEQ ID NO:1) solution and about 60 Pa for 1.5% IEIK13 (SEQ ID NO:3) solution.

[2] = Storage modulus recovery after injection through 30-gauge needle
Description: RADA16 (SEQ ID NO:1) was injected through 30-gauge needle so that applied shear stress reduced stiffness of the peptides. The measurements were started 1 minute after the injection.
KLD12 (SEQ ID NO:2) was injected through 30-gauge needle so that the applied shear stress reduced stiffness of the peptides. The measurements were started 1 minute after the injection.
IEIK13 (SEQ ID NO:3) was injected through 30-gauge needle so that the applied shear stress reduced stiffness of the peptides. The measurements were started 1 minute after the injection.
The percentages of recovery back to the original storage modulus at 1 min and 20 min after injection peptide compositions through a 30 gauge needle are listed in Table 2. The recovery rate of IEIK13 (specifically, of a […]; SEQ ID NO:3) was the fastest among the peptide solutions, showing 100% recovery to the original storage modulus in 20 min. […] In some non-limiting embodiments, it may take about 12 to 48 hours for full recovery to an original modulus after passage through a needle (e.g., injection).
Rheological measurements were performed for RADA16 (SEQ ID NO:1) and IEIK13 (SEQ ID NO:3) solutions after injecting them through 30 gauge needles. […] The results are shown in FIG. 6 for RADA16 (SEQ ID NO:1), FIG. 7 for KLD12 (SEQ ID NO:2), and FIG. 8 for IEIK13 (SEQ ID NO:3).

[3] = Time sweep tests (rheological strength) before and after autoclave treatment; details: time sweep test
Description: Rheological properties of certain peptide compositions were determined before and after autoclaving.

[4] = Rheological properties of peptide solutions at selected concentrations; details: for Loss Modulus (G″) / Storage Modulus (G′): at 1 Pa of oscillation stress; for Max. Viscosity (max η′): from viscosity plots at the range of measured stress
Description: Rheological properties were determined for a variety of peptide solutions. […] For example 2% KLD12 (SEQ ID NO:2), 2.5% KLD12 (SEQ ID NO:2), and 1.5% IEIK13 (SEQ ID NO:3) solutions have 2, 3.4, and 3.2 times higher maximum viscosities than 2.5% RADA16 (SEQ ID NO:1), respectively.

[5] = Apparent viscosity change after passage through membrane shear-thinning unit (container-inversion test)
Excerpt: The top row includes pictures of 2.5% KLD12 (SEQ ID NO:2). The bottom row includes pictures of 1.5% IEIK13 (SEQ ID NO:3). The solutions in the most left column stay on the top of the vials. The solutions in the most right column (after applying shear stress) have low viscosity, so that most materials are located at the bottom of vials.
To examine the effect of pore size in the shear-thinning unit on viscosity change of viscous peptide solutions, 2.5% KLD12 (SEQ ID NO:2) and 1.5% IEIK13 (SEQ ID NO:3) solutions were passed through selected pore sizes, and their apparent viscosity changes were evaluated. 2.5% KLD12 (SEQ ID NO:2) solutions passed through the shear-thinning unit with the pore sizes of 41 μm, 20 μm, and 5 μm.

[6] = 2.5%, 1 min after injection through 30-gauge needle
[7] = 2.5%, 20 min after injection through 30-gauge needle
[8] = 1%, 1 min after injection through 30-gauge needle
[9] = 1%, 20 min after injection through 30-gauge needle

Substance: Ile-Glu-Ile-Lys-Ile-Glu-Ile-Lys-Ile-Glu-Ile-Lys-Ile [IEIK13]
- flow behaviour with increasing shear rate ([1]; 1.5% solution): typical shear thinning properties
- yield stress (shear flow test) ([1]; 1.5% solution): about 60 Pa
- Storage modulus [2, 6]: 632 Pa
- Storage modulus [2, 7]: 2248 Pa
- Storage modulus ([2]; 2.5%, Before injection): 2213 Pa
- rheological strength after autoclaving versus non-autoclaved [3]: almost identical rheological strength
- times higher maximum viscosity than 2.5% RADA16 ([4]; 1.5% solution): 3.2 times
- Yield Stress ([4]; Conc. 1%): 39.8 Pa
- Loss Modulus (G″) ([4]; Conc. 1%): 77 Pa
- Storage Modulus (G′) ([4]; Conc. 1%): 719 Pa
- Max. Viscosity (max η′) ([4]; Conc. 1%): 12.9 Pa · s
- Yield Stress ([4]; Conc. 1.5%): 50.1 Pa
- Loss Modulus (G″) ([4]; Conc. 1.5%): 94 Pa
- Storage Modulus (G′) ([4]; Conc. 1.5%): 1092 Pa
- Max. Viscosity (max η′) ([4]; Conc. 1.5%): 18.0 Pa · s
- Loss Modulus (G″) ([4]; Conc. 2%): 138 Pa
- Storage Modulus (G′) ([4]; Conc. 2%): 1708 Pa
- Yield Stress ([4]; Conc. 2.5%): 100 Pa
- Loss Modulus (G″) ([4]; Conc. 2.5%): 174 Pa
- Storage Modulus (G′) ([4]; Conc. 2.5%): 2213 Pa
- Max. Viscosity (max η′) ([4]; Conc. 2.5%): 40.2 Pa · s
- apparent viscosity change after shear-thinning unit ([5]; 1.5% solution, membrane with a pore size of 5 μm): reduced significantly

Substance: Arg-Ala-Asp-Ala-Arg-Ala-Asp-Ala-Arg-Ala-Asp-Ala-Arg-Ala-Asp-Ala [RADA16]
- flow behaviour with increasing shear rate ([1]; 2.5% solution): typical shear thinning properties
- yield stress (shear flow test) ([1]; 2.5% solution): about 40 Pa
- Storage modulus [2, 8]: 6.8 Pa
- Storage modulus [2, 9]: 40 Pa
- Storage modulus ([2]; 1%, Before injection): 74 Pa
- Storage modulus [2, 6]: 67 Pa
- Storage modulus [2, 7]: 196 Pa
- Storage modulus ([2]; 2.5%, Before injection): 352 Pa
- rheological strength after autoclaving versus non-autoclaved [3]: dramatic decrease of rheological strength
- Yield Stress ([4]; Conc. 1%): 15.9 Pa
- Loss Modulus (G″) ([4]; Conc. 1%): 12 Pa
- Storage Modulus (G′) ([4]; Conc. 1%): 74 Pa
- Max. Viscosity (max η′) ([4]; Conc. 1%): 2.3 Pa · s
- Yield Stress ([4]; Conc. 1.5%): 20.0 Pa
- Loss Modulus (G″) ([4]; Conc. 1.5%): 30 Pa
- Storage Modulus (G′) ([4]; Conc. 1.5%): 158 Pa
- Max. Viscosity (max η′) ([4]; Conc. 1.5%): 3.4 Pa · s
- Yield Stress ([4]; Conc. 2%): 31.6 Pa
- Loss Modulus (G″) ([4]; Conc. 2%): 39 Pa
- Storage Modulus (G′) ([4]; Conc. 2%): 217 Pa
- Max. Viscosity (max η′) ([4]; Conc. 2%): 4.0 Pa · s
- Yield Stress ([4]; Conc. 2.5%): 50.1 Pa
- Loss Modulus (G″) ([4]; Conc. 2.5%): 53 Pa
- Storage Modulus (G′) ([4]; Conc. 2.5%): 352 Pa
- Max. Viscosity (max η′) ([4]; Conc. 2.5%): 5.6 Pa · s

Substance: KLDLKLDLKLDL [KLD12, self-assembling peptide with repeats of KLDL, tested as solutions of 1 to 2.5%]
- Storage modulus [2, 8]: 0.68 Pa
- Storage modulus [2, 9]: 59 Pa
- Storage modulus ([2]; 1%, Before injection): 140 Pa
- Storage modulus [2, 6]: 57 Pa
- Storage modulus [2, 7]: 196 Pa
- Storage modulus ([2]; 2.5%, Before injection): 846 Pa
- times higher maximum viscosity than 2.5% RADA16 ([4]; 2% solution): 2 times
- times higher maximum viscosity than 2.5% RADA16 ([4]; 2.5% solution): 3.4 times
- Yield Stress ([4]; Conc. 1%): 25.1 Pa
- Loss Modulus (G″) ([4]; Conc. 1%): 25 Pa
- Storage Modulus (G′) ([4]; Conc. 1%): 140 Pa
- Max. Viscosity (max η′) ([4]; Conc. 1%): 2.0 Pa · s
- Yield Stress ([4]; Conc. 1.5%): 39.8 Pa
- Loss Modulus (G″) ([4]; Conc. 1.5%): 46 Pa
- Storage Modulus (G′) ([4]; Conc. 1.5%): 292 Pa
- Max. Viscosity (max η′) ([4]; Conc. 1.5%): 7.1 Pa · s
- Yield Stress ([4]; Conc. 2%): 79.4 Pa
- Loss Modulus (G″) ([4]; Conc. 2%): 63 Pa
- Storage Modulus (G′) ([4]; Conc. 2%): 573 Pa
- Max. Viscosity (max η′) ([4]; Conc. 2%): 11.0 Pa · s
- Yield Stress ([4]; Conc. 2.5%): 100 Pa
- Loss Modulus (G″) ([4]; Conc. 2.5%): 93 Pa
- Storage Modulus (G′) ([4]; Conc. 2.5%): 846 Pa
- Max. Viscosity (max η′) ([4]; Conc. 2.5%): 19.0 Pa · s
- apparent viscosity change after shear-thinning unit ([5]; 2.5% solution, pore size of 120 μm): remained too viscous to flow down
- apparent viscosity change after shear-thinning unit ([5]; 2.5% solution, pore sizes of 41 μm, 20 μm, and 5 μm): decreased enough to flow down
